Measurements reported in patent US20240400614A1, “CLEAVABLE PEPTIDES AND METHODS OF USE THEREOF” (Bright Peak Therapeutics AG, priority 2023, published 2024).
Square brackets hold non-standard residues; d marks the D form. Ends that are not written are not given here. Tyr(3-NO2) = N[C@@H](Cc1ccc(O)c([N+](=O)[O-])c1)C(=O)O; 2Abz = Nc1ccccc1C(=O)O

Columns and labels:
Format in all cases: biochemical
[1] = biological target: T1, MMP-9 (Homo sapiens, UniProt P14780); test: FRET peptide cleavage efficiency with MMP-9 (standard pH 7.5; also pH 6.5)
T1 construct: purchased SIGMA PF024

[2] = biological target: T2, MMP-2 (Homo sapiens, UniProt P08253); test: FRET peptide cleavage efficiency with MMP-2
T2 construct: purchased SIGMA PF023
T2 sequence (P08253 110-660): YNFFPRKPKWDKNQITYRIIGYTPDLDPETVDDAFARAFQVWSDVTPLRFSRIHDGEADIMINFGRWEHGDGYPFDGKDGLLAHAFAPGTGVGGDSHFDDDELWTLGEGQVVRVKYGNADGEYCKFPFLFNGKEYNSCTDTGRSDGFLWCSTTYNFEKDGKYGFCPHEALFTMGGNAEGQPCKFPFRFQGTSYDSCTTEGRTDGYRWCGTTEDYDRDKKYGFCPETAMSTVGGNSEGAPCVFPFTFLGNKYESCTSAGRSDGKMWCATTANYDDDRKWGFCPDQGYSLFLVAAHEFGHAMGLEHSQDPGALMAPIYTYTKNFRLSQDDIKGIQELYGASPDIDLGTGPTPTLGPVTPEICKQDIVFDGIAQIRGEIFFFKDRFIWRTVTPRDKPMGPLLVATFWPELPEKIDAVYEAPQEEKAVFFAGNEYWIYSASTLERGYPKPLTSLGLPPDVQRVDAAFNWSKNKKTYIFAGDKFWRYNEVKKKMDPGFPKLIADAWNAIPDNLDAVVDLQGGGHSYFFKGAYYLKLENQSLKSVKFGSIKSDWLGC

[3] = biological target: T3, matriptase (Homo sapiens, UniProt Q9Y5Y6); test: FRET peptide cleavage efficiency with matriptase
T3 construct: purchased R&D Systems 3946-SEB
T3 sequence (Q9Y5Y6 615-855 limits assumed): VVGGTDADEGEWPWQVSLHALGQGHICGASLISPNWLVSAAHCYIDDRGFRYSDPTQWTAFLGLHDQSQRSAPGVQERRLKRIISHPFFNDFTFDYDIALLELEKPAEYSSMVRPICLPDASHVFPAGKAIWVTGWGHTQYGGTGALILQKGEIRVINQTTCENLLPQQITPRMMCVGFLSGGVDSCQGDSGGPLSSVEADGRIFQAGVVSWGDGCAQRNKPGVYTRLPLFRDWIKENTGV

[4] = biological target: T4, MMP-7 (Homo sapiens, UniProt P09237); test: FRET peptide cleavage efficiency with MMP-7 (standard pH 7.5; also pH 6.5)
T4 construct: purchased SIGMA CC1059
T4 sequence (P09237 95-267): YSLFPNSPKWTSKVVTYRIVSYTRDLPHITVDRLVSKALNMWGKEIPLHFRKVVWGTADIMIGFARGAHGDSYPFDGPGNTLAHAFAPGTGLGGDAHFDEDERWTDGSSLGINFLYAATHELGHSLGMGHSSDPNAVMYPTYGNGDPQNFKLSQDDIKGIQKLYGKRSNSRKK

[5] = biological target: uPA (Homo sapiens, UniProt P00749); test: FRET peptide cleavage efficiency with uPA
[6] = t = 15 min, standard conditions (Table 8)
[7] = t = 60 min, standard conditions (Table 8)
[8] = t = 120 min, standard conditions (Table 8)
[9] = t = 15 min, 200 uM linker, 1 ug/ml protease, 37° C., buffer C pH 7.5
[10] = t = 60 min, 200 uM linker, 1 ug/ml protease, 37° C., buffer C pH 7.5
[11] = t = 120 min, 200 uM linker, 1 ug/ml protease, 37° C., buffer C pH 7.5
[12] = t = 15 min, 200 uM linker, 1 ug/ml protease, 37° C., buffer B pH 9.0
[13] = t = 60 min, 200 uM linker, 1 ug/ml protease, 37° C., buffer B pH 9.0
[14] = 200 uM linker, 1 ug/ml protease, 37° C., buffer B pH 9.0
[15] = t = 15 min, 200 uM linker, 1 ug/ml protease, 37° C., buffer A pH 8.5
[16] = t = 60 min, 200 uM linker, 1 ug/ml protease, 37° C., buffer A pH 8.5
[17] = t = 120 min, 200 uM linker, 1 ug/ml protease, 37° C., buffer A pH 8.5

T1 sequence (P14780 94-707): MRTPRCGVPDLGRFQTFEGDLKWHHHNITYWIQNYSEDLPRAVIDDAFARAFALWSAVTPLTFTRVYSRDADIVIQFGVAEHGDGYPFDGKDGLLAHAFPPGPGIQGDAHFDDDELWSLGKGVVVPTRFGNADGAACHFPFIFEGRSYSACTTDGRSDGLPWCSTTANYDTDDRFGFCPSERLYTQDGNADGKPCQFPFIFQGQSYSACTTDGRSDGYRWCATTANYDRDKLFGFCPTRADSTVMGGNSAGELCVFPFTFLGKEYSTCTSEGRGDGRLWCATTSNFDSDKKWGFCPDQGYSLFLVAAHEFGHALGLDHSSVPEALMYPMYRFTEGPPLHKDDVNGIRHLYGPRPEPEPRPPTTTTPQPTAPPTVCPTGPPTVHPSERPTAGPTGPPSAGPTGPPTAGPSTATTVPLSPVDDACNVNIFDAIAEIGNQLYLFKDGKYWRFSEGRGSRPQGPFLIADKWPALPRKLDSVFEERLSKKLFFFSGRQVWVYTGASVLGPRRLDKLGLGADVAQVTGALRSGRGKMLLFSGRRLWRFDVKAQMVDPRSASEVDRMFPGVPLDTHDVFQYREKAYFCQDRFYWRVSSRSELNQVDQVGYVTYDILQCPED

| Sequence | % cleavage MMP-9 t = 15 min ([1]; t = 15 min (Table 9)) [%] | % cleavage MMP-9 t = 60 min ([1]; t = 60 min (Table 9)) [%] | % cleavage MMP-9 t = 120 min ([1]; t = 120 min (Table 9)) [%] | % cleavage MMP-2 t = 15 min ([2]; t = 15 min (Table 9)) [%] | % cleavage MMP-2 t = 60 min ([2]; t = 60 min (Table 9)) [%] | % cleavage MMP-2 t = 120 min ([2]; t = 120 min (Table 9)) [%] | % cleavage MMP-7 t = 15 min ([4]; t = 15 min (Table 9)) [%] | % cleavage MMP-7 t = 60 min ([4]; t = 60 min (Table 9)) [%] | % cleavage MMP-7 t = 120 min ([4]; t = 120 min (Table 9)) [%] | % cleavage MMP-2 t = 15 min ([2]; pH 6.5, t = 15 min (Table 7)) [%] | % cleavage MMP-2 t = 60 min ([2]; pH 6.5, t = 60 min (Table 7)) [%] | % cleavage MMP-2 t = 15 min [2, 9] [%] | % cleavage MMP-2 t = 60 min [2, 10] [%] | % cleavage MMP-2 t = 120 min [2, 11] [%] | % cleavage Matriptase t = 15 min [3, 12] [%] | % cleavage Matriptase t = 60 min [3, 13] [%] | % cleavage Matriptase t = 120 min [3, 14] [%] | % cleavage uPA t = 15 min [5, 15] [%] | % cleavage uPA t = 60 min [5, 16] [%] | % cleavage uPA t = 120 min [5, 17] [%] | other results |
| --- | --- | --- | --- | --- | --- | --- | --- | --- | --- | --- | --- | --- | --- | --- | --- | --- | --- | --- | --- | --- | --- |
| RGRKPQPLVD ([2Abz]RGRKPQPLVD[Tyr(3-NO2)]-NH2) [LNK039] | 25 | 74 | 94 | 10 | 38 | 61 | 35 | 80 | 96 |  |  |  |  |  |  |  |  |  |  |  | % cleavage MMP-9 t = 15 min [1, 6]: 25%; % cleavage MMP-9 t = 60 min [1, 7]: 74%; % cleavage MMP-9 t = 120 min [1, 8]: 94%; % cleavage MMP-2 t = 60 min [2, 7]: 38%; % cleavage MMP-2 t = 120 min [2, 8]: 61%; % cleavage Matriptase t = 15 min [3, 6]: 77%; % cleavage Matriptase t = 60 min [3, 7]: 100%; % cleavage Matriptase t = 120 min ([3]; standard conditions (Table 8)): 100%; % cleavage MMP-7 t = 15 min [4, 6]: 35%; % cleavage MMP-7 t = 60 min [4, 7]: 80%; % cleavage MMP-7 t = 120 min [4, 8]: 96%; % vcleavage uPA t = 15 min [5, 6]: 0%; % cleavage uPA t = 60 min [5, 7]: 0%; % cleavage uPA t = 120 min [5, 8]: 0% |
| SSRGPYMLQG ([2Abz]SSRGPYMLQG[Tyr(3-NO2)]-NH2) [LNK022] | 63 | 99 | 100 | 27 | 79 | 94 | 40 | 0 | 100 | 32 | 74 | 31 | 81 | 96 | 8 | 9 | 11 | 0 | 1 | 3 | % cleavage MMP-2 t = 15 min ([2]; pH 7.5, t = 15 min (Table 7)): 36%; % cleavage MMP-2 t = 60 min ([2]; pH 7.5, t = 60 min (Table 7)): 84%; % cleavage Matriptase t = 15 min ([3]; pH 6.5, t = 15 min (Table 7)): 0%; % cleavage Matriptase t = 60 min ([3]; pH 6.5, t = 60 min (Table 7)): 0%; % cleavage Matriptase t = 15 min ([3]; pH 7.5, t = 15 min (Table 7)): 0%; % cleavage Matriptase t = 60 min ([3]; pH 7.5, t = 60 min (Table 7)): 0%; % cleavage uPA t = 60 min ([5]; pH 6.5, t = 60 min (Table 7)): 0%; % cleavage uPA t = 120 min ([5]; pH 6.5, t = 120 min (Table 7)): 0%; % cleavage uPA t = 60 min ([5]; pH 7.5, t = 60 min (Table 7)): 0%; % cleavage uPA t = 120 min ([5]; pH 7.5, t = 120 min (Table 7)): 0% |
| SGRVAGLVG ([2Abz]SGRVAGLVG[Tyr(3-NO2)]-NH2) [LNK016] | 10 | 43 | 67 | 72 | 100 | 100 | 11 | 43 | 70 | 84 | 100 | 85 | 99 | 99 | 22 | 70 | 92 | 2 | 6 | 12 | % cleavage MMP-2 t = 15 min ([2]; pH 7.5, t = 15 min (Table 7)): 87%; % cleavage MMP-2 t = 60 min ([2]; pH 7.5, t = 60 min (Table 7)): 100%; % cleavage Matriptase t = 15 min ([3]; pH 6.5, t = 15 min (Table 7)): 8%; % cleavage Matriptase t = 60 min ([3]; pH 6.5, t = 60 min (Table 7)): 24%; % cleavage Matriptase t = 15 min ([3]; pH 7.5, t = 15 min (Table 7)): 17%; % cleavage Matriptase t = 60 min ([3]; pH 7.5, t = 60 min (Table 7)): 54%; % cleavage uPA t = 60 min ([5]; pH 6.5, t = 60 min (Table 7)): 0%; % cleavage uPA t = 120 min ([5]; pH 6.5, t = 120 min (Table 7)): 0%; % cleavage uPA t = 60 min ([5]; pH 7.5, t = 60 min (Table 7)): 4%; % cleavage uPA t = 120 min ([5]; pH 7.5, t = 120 min (Table 7)): 10% |
| SGRVANPLGGSG ([2Abz]SGRVANPLGGSG[Tyr(3-NO2)]-NH2) [LNK053] | 1 | 3 | 4 | 2 | 5 | 8 | 0 | 0 | 0 |  |  | 2 | 5 | 8 | 3 | 11 | 20 | 1 | 5 | 12 |  |
| SGRVANLVG (not fully specified (N-terminus, C-terminus)) [LNK017] | 43 | 94 | 100 | 89 | 97 | 100 | 62 | 96 | 100 | 93 | 100 | 90 | 99 | 99 | 29 | 81 | 96 | 1 | 6 | 12 | % cleavage MMP-2 t = 15 min ([2]; pH 7.5, t = 15 min (Table 7)): 37%; % cleavage MMP-2 t = 60 min ([2]; pH 7.5, t = 60 min (Table 7)): 100%; % cleavage Matriptase t = 15 min ([3]; pH 6.5, t = 15 min (Table 7)): 5%; % cleavage Matriptase t = 60 min ([3]; pH 6.5, t = 60 min (Table 7)): 26%; % cleavage Matriptase t = 15 min ([3]; pH 7.5, t = 15 min (Table 7)): 25%; % cleavage Matriptase t = 60 min ([3]; pH 7.5, t = 60 min (Table 7)): 68%; % cleavage uPA t = 60 min ([5]; pH 6.5, t = 60 min (Table 7)): 0%; % cleavage uPA t = 120 min ([5]; pH 6.5, t = 120 min (Table 7)): 0%; % cleavage uPA t = 60 min ([5]; pH 7.5, t = 60 min (Table 7)): 7%; % cleavage uPA t = 120 min ([5]; pH 7.5, t = 120 min (Table 7)): 13% |
